Results on 2 substances are retold here after US20230312675A1.

Some results are limits rather than exact numbers.

Common to all, as to assay: cell-based or functional assay
For test [1], the target named is Truncated EGFR (human EGFR containing only extracellular and transmembrane domains) (human) (UniProt P00533).
Test [2] has as its target truncated CD19 on EL4 cells (UniProt P15391).
The target of test [3] is EGFR on human cell lines (A431, T98G, LN18, U87, U87high, HRCE) (human) (UniProt P00533).

Sequence of UniProt P15391 (P15391 20-333 limits assumed): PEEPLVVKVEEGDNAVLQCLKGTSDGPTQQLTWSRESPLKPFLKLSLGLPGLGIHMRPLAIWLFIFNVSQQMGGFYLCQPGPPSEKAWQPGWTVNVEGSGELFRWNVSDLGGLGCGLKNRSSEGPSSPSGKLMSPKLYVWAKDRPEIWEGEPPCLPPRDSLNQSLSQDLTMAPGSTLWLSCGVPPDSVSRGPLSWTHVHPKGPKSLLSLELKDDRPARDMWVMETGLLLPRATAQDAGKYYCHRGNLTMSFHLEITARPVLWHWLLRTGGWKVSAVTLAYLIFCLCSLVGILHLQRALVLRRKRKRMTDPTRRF

In test [1], Cetuximab-derived CAR returned a numeric expansion of CAR+ T cells over 28 days of co-culture with tEGFR+ K562 aAPC of 1000 fold; a production of IFN-γ in response to tEGFR+ EL4, DNA-modified T cells, 24 hour time point of 40.3%; a production of IFN-γ in response to tEGFR+ EL4, DNA-modified T cells, 120 hour time point of 48.6%; a production of IFN-γ in response to tEGFR+ EL4, RNA-modified T cells, 24 hours after RNA transfer of 14.2%. Also, in test [1], the production of IFN-γ in response to tEGFR+ EL4, RNA-modified T cells, 120 hours after RNA transfer turned out to be 1.1%; the proportion of tEGFR+ EL4 in 1:1 co-culture with CAR+ T cells after 5 days is less than 10%; the specific lysis of tEGFR+ EL4 was found to be 57.5%. The same substance showed a specific lysis of CD19+ EL4 (non-specific target) in test [2] of 17.3%. Further, in test [3], the percent CAR remaining on T-cell surface after 12 hours of co-culture with U87 was determined as 68%, the percent CAR remaining on T-cell surface after 12 hours of co-culture with U87high is 37.4%, the percent CAR remaining on T-cell surface after 48 hours of co-culture with U87 was found to be 95.5% and the percent CAR remaining on T-cell surface after 48 hours of co-culture with U87high amounted to 42.6%. Also, in test [3], the reduction in U87 cell number relative to controls grown without CAR+ T cells stood at 40%; the reduction in U87high cell number relative to controls grown without CAR+ T cells is 80%; the specific lysis of HRCE, 10:1 E:T ratio amounted to 81.1%; the specific lysis of HRCE, DNA-modified T cells, 10:1 E:T ratio, 24 hrs was determined as 45.5%. Moreover, in test [3], the specific lysis of HRCE, DNA-modified T cells, 10:1 E:T ratio, 120 hrs is 51.6%; the specific lysis of HRCE, RNA-modified T cells, 10:1 E:T ratio, 24 hrs came to 39.5%; the specific lysis of HRCE, RNA-modified T cells, 10:1 E:T ratio, 120 hrs turned out to be 19.8%.
With Nimotuzumab-derived CAR, in test [1], the numeric expansion of CAR+ T cells over 28 days of co-culture with tEGFR+ K562 aAPC was 1000 fold, the proportion of tEGFR+ EL4 in 1:1 co-culture with CAR+ T cells after 5 days came to 80% and the specific lysis of tEGFR+ EL4 was 21.2%. Moreover, the specific lysis of CD19+ EL4 (non-specific target) in test [2] is 12.3%. Further, in test [3], the percent CAR remaining on T-cell surface after 12 hours of co-culture with U87 was 126%, the percent CAR remaining on T-cell surface after 12 hours of co-culture with U87high was 124%, the percent CAR remaining on T-cell surface after 48 hours of co-culture with U87 turned out to be 94.4% and the percent CAR remaining on T-cell surface after 48 hours of co-culture with U87high stood at 95.7%. Also, in test [3], the reduction in U87high cell number relative to controls grown without CAR+ T cells stood at 80% and the specific lysis of HRCE, 10:1 E:T ratio was found to be 30.4%.
